B1: Tumor necrosis factor receptor superfamily member 6 (Homo sapiens), P25445-1 (parent)
chain: MLGIWTLLPLVLTSVARLSSKSVNAQVTDINSKGLELRKTVTTVETQNLEGLHHDGQFCHKPCPPGERKARDCTVNGDEPDCVPCQEGKEYTDKAHFSSKCRRCRLCDEGHGLEVEINCTRTQNTKCRCKPNFFCNSTVCEHCDPCTKCEHGIIKECTLTSNTKCKEEGSRSNLGWLCLLLLPIPLIVWVKRKEVQKTCRKHRKENQGSHESPTLNPETVAINLSDVDLSKYITTIAGVMTLSQVKGFVRKNGVNEAKIDEIKNDNVQDTAEQKVQLLRNWHQLHGKKEAYDTLIKDLKKANLCTLAEKIQTIILKDITSDSENSNFRNEIQSLV

Variants of: B1
Settings: with cav1_human CAV1, Q03135
Sequence of cav1_human CAV1, Q03135 (Q03135 whole entry): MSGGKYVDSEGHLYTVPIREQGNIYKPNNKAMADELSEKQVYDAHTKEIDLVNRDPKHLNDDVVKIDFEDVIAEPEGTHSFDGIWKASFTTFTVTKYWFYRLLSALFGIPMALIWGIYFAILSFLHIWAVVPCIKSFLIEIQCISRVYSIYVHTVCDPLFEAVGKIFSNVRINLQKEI
In the case of C199S, the “effect of a mutation on the interaction” value is reported as “disrupting interaction”.
